Reference: patent publication US20210388087A1

Target: Human CD137 ECD (human)
Assay: single mutant vs template dBBDu183H

Sequence of Human CD137 ECD (human) (chain, as listed by the source limits assumed): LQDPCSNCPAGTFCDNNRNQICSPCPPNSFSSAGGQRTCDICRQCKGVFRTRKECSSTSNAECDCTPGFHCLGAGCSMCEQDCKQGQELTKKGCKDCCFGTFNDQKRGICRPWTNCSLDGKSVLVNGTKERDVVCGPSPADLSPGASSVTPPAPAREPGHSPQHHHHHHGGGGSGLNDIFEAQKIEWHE

| Binder | fold change of affinity [fold] |
| --- | --- |
| H183/L072 VH M34S (antibody, name in Kabat numbering, V domains shown) VH: QVQLVESGGGLVQPGRSLRLSCAASGFTFSNAWSHWVRQAPGKGLEWVAQIKDKGNAYAAYYAPSVKGRFTISRDDSKNSIYLQMNSLKTEDTAVYYCHYVHYASASTVLPAFGVDAWGQGTTVTVSS VL: DIVMTQSPLSLPVTPGEPASISCQASQELVHMNRNTYLHWYQQKPGQAPRLLIYKVSNRFPGVPDRFSGSGSGTDFTLKISRVEAEDVGVYYCAQGTSVPFTFGQGTKLEIK | 0 |
| H183/L072 VH M34D (antibody, name in Kabat numbering, V domains shown) VH: QVQLVESGGGLVQPGRSLRLSCAASGFTFSNAWDHWVRQAPGKGLEWVAQIKDKGNAYAAYYAPSVKGRFTISRDDSKNSIYLQMNSLKTEDTAVYYCHYVHYASASTVLPAFGVDAWGQGTTVTVSS VL: DIVMTQSPLSLPVTPGEPASISCQASQELVHMNRNTYLHWYQQKPGQAPRLLIYKVSNRFPGVPDRFSGSGSGTDFTLKISRVEAEDVGVYYCAQGTSVPFTFGQGTKLEIK | 0 |
| H183/L072 VH H35S (antibody, name in Kabat numbering, V domains shown) VH: QVQLVESGGGLVQPGRSLRLSCAASGFTFSNAWMSWVRQAPGKGLEWVAQIKDKGNAYAAYYAPSVKGRFTISRDDSKNSIYLQMNSLKTEDTAVYYCHYVHYASASTVLPAFGVDAWGQGTTVTVSS VL: DIVMTQSPLSLPVTPGEPASISCQASQELVHMNRNTYLHWYQQKPGQAPRLLIYKVSNRFPGVPDRFSGSGSGTDFTLKISRVEAEDVGVYYCAQGTSVPFTFGQGTKLEIK | 0 |
| H183/L072 VH I51D (antibody, name in Kabat numbering, V domains shown) VH: QVQLVESGGGLVQPGRSLRLSCAASGFTFSNAWMHWVRQAPGKGLEWVAQDKDKGNAYAAYYAPSVKGRFTISRDDSKNSIYLQMNSLKTEDTAVYYCHYVHYASASTVLPAFGVDAWGQGTTVTVSS VL: DIVMTQSPLSLPVTPGEPASISCQASQELVHMNRNTYLHWYQQKPGQAPRLLIYKVSNRFPGVPDRFSGSGSGTDFTLKISRVEAEDVGVYYCAQGTSVPFTFGQGTKLEIK | 0 |
| H183/L072 VH F29D (antibody, name in Kabat numbering, V domains shown) VH: QVQLVESGGGLVQPGRSLRLSCAASGFTDSNAWMHWVRQAPGKGLEWVAQIKDKGNAYAAYYAPSVKGRFTISRDDSKNSIYLQMNSLKTEDTAVYYCHYVHYASASTVLPAFGVDAWGQGTTVTVSS VL: DIVMTQSPLSLPVTPGEPASISCQASQELVHMNRNTYLHWYQQKPGQAPRLLIYKVSNRFPGVPDRFSGSGSGTDFTLKISRVEAEDVGVYYCAQGTSVPFTFGQGTKLEIK | 0 |
| H183/L072 VH M34T (antibody, name in Kabat numbering, V domains shown) VH: QVQLVESGGGLVQPGRSLRLSCAASGFTFSNAWTHWVRQAPGKGLEWVAQIKDKGNAYAAYYAPSVKGRFTISRDDSKNSIYLQMNSLKTEDTAVYYCHYVHYASASTVLPAFGVDAWGQGTTVTVSS VL: DIVMTQSPLSLPVTPGEPASISCQASQELVHMNRNTYLHWYQQKPGQAPRLLIYKVSNRFPGVPDRFSGSGSGTDFTLKISRVEAEDVGVYYCAQGTSVPFTFGQGTKLEIK | 0 |
| H183/L072 VH K52S (antibody, name in Kabat numbering, V domains shown) VH: QVQLVESGGGLVQPGRSLRLSCAASGFTFSNAWMHWVRQAPGKGLEWVAQISDKGNAYAAYYAPSVKGRFTISRDDSKNSIYLQMNSLKTEDTAVYYCHYVHYASASTVLPAFGVDAWGQGTTVTVSS VL: DIVMTQSPLSLPVTPGEPASISCQASQELVHMNRNTYLHWYQQKPGQAPRLLIYKVSNRFPGVPDRFSGSGSGTDFTLKISRVEAEDVGVYYCAQGTSVPFTFGQGTKLEIK | 0 |
| H183/L072 VH N31D (antibody, name in Kabat numbering, V domains shown) VH: QVQLVESGGGLVQPGRSLRLSCAASGFTFSDAWMHWVRQAPGKGLEWVAQIKDKGNAYAAYYAPSVKGRFTISRDDSKNSIYLQMNSLKTEDTAVYYCHYVHYASASTVLPAFGVDAWGQGTTVTVSS VL: DIVMTQSPLSLPVTPGEPASISCQASQELVHMNRNTYLHWYQQKPGQAPRLLIYKVSNRFPGVPDRFSGSGSGTDFTLKISRVEAEDVGVYYCAQGTSVPFTFGQGTKLEIK | 0 |
| H183/L072 VH D52aT (antibody, name in Kabat numbering, V domains shown) VH: QVQLVESGGGLVQPGRSLRLSCAASGFTFSNAWMHWVRQAPGKGLEWVAQIKTKGNAYAAYYAPSVKGRFTISRDDSKNSIYLQMNSLKTEDTAVYYCHYVHYASASTVLPAFGVDAWGQGTTVTVSS VL: DIVMTQSPLSLPVTPGEPASISCQASQELVHMNRNTYLHWYQQKPGQAPRLLIYKVSNRFPGVPDRFSGSGSGTDFTLKISRVEAEDVGVYYCAQGTSVPFTFGQGTKLEIK | 0 |
| H183/L072 VH A32D (antibody, name in Kabat numbering, V domains shown) VH: QVQLVESGGGLVQPGRSLRLSCAASGFTFSNDWMHWVRQAPGKGLEWVAQIKDKGNAYAAYYAPSVKGRFTISRDDSKNSIYLQMNSLKTEDTAVYYCHYVHYASASTVLPAFGVDAWGQGTTVTVSS VL: DIVMTQSPLSLPVTPGEPASISCQASQELVHMNRNTYLHWYQQKPGQAPRLLIYKVSNRFPGVPDRFSGSGSGTDFTLKISRVEAEDVGVYYCAQGTSVPFTFGQGTKLEIK | 0 |
| H183/L072 VH D52aS (antibody, name in Kabat numbering, V domains shown) VH: QVQLVESGGGLVQPGRSLRLSCAASGFTFSNAWMHWVRQAPGKGLEWVAQIKSKGNAYAAYYAPSVKGRFTISRDDSKNSIYLQMNSLKTEDTAVYYCHYVHYASASTVLPAFGVDAWGQGTTVTVSS VL: DIVMTQSPLSLPVTPGEPASISCQASQELVHMNRNTYLHWYQQKPGQAPRLLIYKVSNRFPGVPDRFSGSGSGTDFTLKISRVEAEDVGVYYCAQGTSVPFTFGQGTKLEIK | 0 |
| H183/L072 VH K52T (antibody, name in Kabat numbering, V domains shown) VH: QVQLVESGGGLVQPGRSLRLSCAASGFTFSNAWMHWVRQAPGKGLEWVAQITDKGNAYAAYYAPSVKGRFTISRDDSKNSIYLQMNSLKTEDTAVYYCHYVHYASASTVLPAFGVDAWGQGTTVTVSS VL: DIVMTQSPLSLPVTPGEPASISCQASQELVHMNRNTYLHWYQQKPGQAPRLLIYKVSNRFPGVPDRFSGSGSGTDFTLKISRVEAEDVGVYYCAQGTSVPFTFGQGTKLEIK | 0 |
| H183/L072 VH H35D (antibody, name in Kabat numbering, V domains shown) VH: QVQLVESGGGLVQPGRSLRLSCAASGFTFSNAWMDWVRQAPGKGLEWVAQIKDKGNAYAAYYAPSVKGRFTISRDDSKNSIYLQMNSLKTEDTAVYYCHYVHYASASTVLPAFGVDAWGQGTTVTVSS VL: DIVMTQSPLSLPVTPGEPASISCQASQELVHMNRNTYLHWYQQKPGQAPRLLIYKVSNRFPGVPDRFSGSGSGTDFTLKISRVEAEDVGVYYCAQGTSVPFTFGQGTKLEIK | 0 |
| H183/L072 VH K52D (antibody, name in Kabat numbering, V domains shown) VH: QVQLVESGGGLVQPGRSLRLSCAASGFTFSNAWMHWVRQAPGKGLEWVAQIDDKGNAYAAYYAPSVKGRFTISRDDSKNSIYLQMNSLKTEDTAVYYCHYVHYASASTVLPAFGVDAWGQGTTVTVSS VL: DIVMTQSPLSLPVTPGEPASISCQASQELVHMNRNTYLHWYQQKPGQAPRLLIYKVSNRFPGVPDRFSGSGSGTDFTLKISRVEAEDVGVYYCAQGTSVPFTFGQGTKLEIK | 0 |

Now from value to binder:

| fold change of affinity [fold] | Binder |
| --- | --- |
| 0 | H183/L072 VH W33D (antibody, name in Kabat numbering, V domains shown) VH: QVQLVESGGGLVQPGRSLRLSCAASGFTFSNADMHWVRQAPGKGLEWVAQIKDKGNAYAAYYAPSVKGRFTISRDDSKNSIYLQMNSLKTEDTAVYYCHYVHYASASTVLPAFGVDAWGQGTTVTVSS VL: DIVMTQSPLSLPVTPGEPASISCQASQELVHMNRNTYLHWYQQKPGQAPRLLIYKVSNRFPGVPDRFSGSGSGTDFTLKISRVEAEDVGVYYCAQGTSVPFTFGQGTKLEIK |
| 0 | H183/L072 VH Y55S (antibody, name in Kabat numbering, V domains shown) VH: QVQLVESGGGLVQPGRSLRLSCAASGFTFSNAWMHWVRQAPGKGLEWVAQIKDKGNASAAYYAPSVKGRFTISRDDSKNSIYLQMNSLKTEDTAVYYCHYVHYASASTVLPAFGVDAWGQGTTVTVSS VL: DIVMTQSPLSLPVTPGEPASISCQASQELVHMNRNTYLHWYQQKPGQAPRLLIYKVSNRFPGVPDRFSGSGSGTDFTLKISRVEAEDVGVYYCAQGTSVPFTFGQGTKLEIK |
| 0 | H183/L072 VH N53S (antibody, name in Kabat numbering, V domains shown) VH: QVQLVESGGGLVQPGRSLRLSCAASGFTFSNAWMHWVRQAPGKGLEWVAQIKDKGSAYAAYYAPSVKGRFTISRDDSKNSIYLQMNSLKTEDTAVYYCHYVHYASASTVLPAFGVDAWGQGTTVTVSS VL: DIVMTQSPLSLPVTPGEPASISCQASQELVHMNRNTYLHWYQQKPGQAPRLLIYKVSNRFPGVPDRFSGSGSGTDFTLKISRVEAEDVGVYYCAQGTSVPFTFGQGTKLEIK |
| 0 | H183/L072 VH N53T (antibody, name in Kabat numbering, V domains shown) VH: QVQLVESGGGLVQPGRSLRLSCAASGFTFSNAWMHWVRQAPGKGLEWVAQIKDKGTAYAAYYAPSVKGRFTISRDDSKNSIYLQMNSLKTEDTAVYYCHYVHYASASTVLPAFGVDAWGQGTTVTVSS VL: DIVMTQSPLSLPVTPGEPASISCQASQELVHMNRNTYLHWYQQKPGQAPRLLIYKVSNRFPGVPDRFSGSGSGTDFTLKISRVEAEDVGVYYCAQGTSVPFTFGQGTKLEIK |
| 0 | H183/L072 VH T28D (antibody, name in Kabat numbering, V domains shown) VH: QVQLVESGGGLVQPGRSLRLSCAASGFDFSNAWMHWVRQAPGKGLEWVAQIKDKGNAYAAYYAPSVKGRFTISRDDSKNSIYLQMNSLKTEDTAVYYCHYVHYASASTVLPAFGVDAWGQGTTVTVSS VL: DIVMTQSPLSLPVTPGEPASISCQASQELVHMNRNTYLHWYQQKPGQAPRLLIYKVSNRFPGVPDRFSGSGSGTDFTLKISRVEAEDVGVYYCAQGTSVPFTFGQGTKLEIK |
| 0 | H183/L072 VH W33T (antibody, name in Kabat numbering, V domains shown) VH: QVQLVESGGGLVQPGRSLRLSCAASGFTFSNATMHWVRQAPGKGLEWVAQIKDKGNAYAAYYAPSVKGRFTISRDDSKNSIYLQMNSLKTEDTAVYYCHYVHYASASTVLPAFGVDAWGQGTTVTVSS VL: DIVMTQSPLSLPVTPGEPASISCQASQELVHMNRNTYLHWYQQKPGQAPRLLIYKVSNRFPGVPDRFSGSGSGTDFTLKISRVEAEDVGVYYCAQGTSVPFTFGQGTKLEIK |
| 0 | H183/L072 VH Y55T (antibody, name in Kabat numbering, V domains shown) VH: QVQLVESGGGLVQPGRSLRLSCAASGFTFSNAWMHWVRQAPGKGLEWVAQIKDKGNATAAYYAPSVKGRFTISRDDSKNSIYLQMNSLKTEDTAVYYCHYVHYASASTVLPAFGVDAWGQGTTVTVSS VL: DIVMTQSPLSLPVTPGEPASISCQASQELVHMNRNTYLHWYQQKPGQAPRLLIYKVSNRFPGVPDRFSGSGSGTDFTLKISRVEAEDVGVYYCAQGTSVPFTFGQGTKLEIK |
